The values below come from paper doi:10.1101/2021.11.08.467404.

In assay [1] the target is microtubules polymerised from porcine brain tubulin (porcine) (UniProt P02550). Briefly: single-molecule TIRF microscopy on immobilised microtubules.
For assay [2] the target is unchanged. Description: FRAP of fluorescent protein on immobilised microtubules.
The target is the same in assay [3]. Briefly: TIRF microscopy of fluorescent protein on immobilised microtubules.

Chain of UniProt P02550 (P02550 whole entry): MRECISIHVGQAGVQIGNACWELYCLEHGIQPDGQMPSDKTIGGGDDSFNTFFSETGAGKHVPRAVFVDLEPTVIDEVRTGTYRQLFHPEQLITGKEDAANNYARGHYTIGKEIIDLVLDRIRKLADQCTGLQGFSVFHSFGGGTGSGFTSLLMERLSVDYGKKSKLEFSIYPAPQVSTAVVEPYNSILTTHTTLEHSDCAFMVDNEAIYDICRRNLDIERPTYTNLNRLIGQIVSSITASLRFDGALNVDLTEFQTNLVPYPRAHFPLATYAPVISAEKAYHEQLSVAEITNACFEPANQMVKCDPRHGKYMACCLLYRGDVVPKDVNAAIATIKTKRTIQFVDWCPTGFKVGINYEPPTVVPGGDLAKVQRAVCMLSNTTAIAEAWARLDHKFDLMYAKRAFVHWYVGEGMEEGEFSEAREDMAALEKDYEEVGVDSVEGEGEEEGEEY

In turn, TMR-MAP2c (natural protein) had a fold increase of dwell time inside GFP-MAP2c envelopes against outside in assay [1] of 3 fold.

In assay [1], “TMR-MAP4 (full-length human MAP4, isoform 1) (from UniProt P27816 1-1152) (natural protein)” came in with a fold dwell time of single molecules against MAP2c of 2 fold.

For the substance GFP-MAP2c (natural protein), in assay [2], the fold turnover (FRAP) outside against inside envelopes stood at 4 fold.

Turning to “kinesin-1-GFP (from UniProt P33176 1-963) (natural protein)”, in assay [3], the landing rate (with 600 nM tau-mCherry) turned out to be 0.23 μm^-1s^-1.
